Source: IntAct's records for PubMed 21532587

B1: Casein kinase I homolog HRR25 (Saccharomyces cerevisiae), P29295 (parent)
chain: MDLRVGRKFRIGRKIGSGSFGDIYHGTNLISGEEVAIKLESIRSRHPQLDYESRVYRYLSGGVGIPFIRWFGREGEYNAMVIDLLGPSLEDLFNYCHRRFSFKTVIMLALQMFCRIQYIHGRSFIHRDIKPDNFLMGVGRRGSTVHVIDFGLSKKYRDFNTHRHIPYRENKSLTGTARYASVNTHLGIEQSRRDDLESLGYVLIYFCKGSLPWQGLKATTKKQKYDRIMEKKLNVSVETLCSGLPLEFQEYMAYCKNLKFDEKPDYLFLARLFKDLSIKLEYHNDHLFDWTMLRYTKAMVEKQRDLLIEKGDLNANSNAASASNSTDNKSETFNKIKLLAMKKFPTHFHYYKNEDKHNPSPEEIKQQTILNNNAASSLPEELLNALDKGMENLRQQQPQQQVQSSQPQPQPQQLQQQPNGQRPNYYPEPLLQQQQRDSQEQQQQVPMATTRATQYPPQINSNNFNTNQASVPPQMRSNPQQPPQDKPAGQSIWL
partner: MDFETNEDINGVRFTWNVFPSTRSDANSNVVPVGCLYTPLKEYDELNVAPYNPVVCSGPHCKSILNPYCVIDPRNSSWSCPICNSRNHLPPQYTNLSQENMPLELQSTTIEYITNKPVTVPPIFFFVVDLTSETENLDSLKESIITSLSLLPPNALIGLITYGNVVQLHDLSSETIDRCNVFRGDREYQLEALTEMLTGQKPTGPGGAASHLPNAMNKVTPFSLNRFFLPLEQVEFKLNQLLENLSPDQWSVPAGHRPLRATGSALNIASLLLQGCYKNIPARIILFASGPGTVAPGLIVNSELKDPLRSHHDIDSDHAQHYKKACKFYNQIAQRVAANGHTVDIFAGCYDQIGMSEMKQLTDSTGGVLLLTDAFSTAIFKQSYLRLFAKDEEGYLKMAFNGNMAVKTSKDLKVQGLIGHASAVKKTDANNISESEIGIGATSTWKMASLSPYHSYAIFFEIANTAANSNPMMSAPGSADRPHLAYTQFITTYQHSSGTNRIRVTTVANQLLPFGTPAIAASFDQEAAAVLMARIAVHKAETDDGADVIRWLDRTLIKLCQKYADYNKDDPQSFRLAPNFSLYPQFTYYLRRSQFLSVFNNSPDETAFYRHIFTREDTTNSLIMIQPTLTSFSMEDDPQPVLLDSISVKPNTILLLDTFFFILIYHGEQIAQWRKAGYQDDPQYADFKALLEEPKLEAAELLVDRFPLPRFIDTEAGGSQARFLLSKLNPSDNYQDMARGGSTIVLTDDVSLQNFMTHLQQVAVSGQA
B2: Protein transport protein SEC23 (Saccharomyces cerevisiae), P15303 (parent)
chain: B1 partner
B3: Protein transport protein SEC23 (Saccharomyces cerevisiae), P15303 (parent)
chain: B1 partner
partner: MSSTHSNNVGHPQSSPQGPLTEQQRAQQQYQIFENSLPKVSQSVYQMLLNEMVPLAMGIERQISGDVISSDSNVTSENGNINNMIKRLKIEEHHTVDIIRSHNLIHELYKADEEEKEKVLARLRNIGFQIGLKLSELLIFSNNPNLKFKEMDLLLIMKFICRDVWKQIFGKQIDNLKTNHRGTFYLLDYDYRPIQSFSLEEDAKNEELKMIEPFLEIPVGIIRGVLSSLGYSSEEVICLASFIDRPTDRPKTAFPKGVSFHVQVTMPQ
B4: Casein kinase I homolog HRR25 (Saccharomyces cerevisiae), P29295 (parent)
chain: B1 chain
partner: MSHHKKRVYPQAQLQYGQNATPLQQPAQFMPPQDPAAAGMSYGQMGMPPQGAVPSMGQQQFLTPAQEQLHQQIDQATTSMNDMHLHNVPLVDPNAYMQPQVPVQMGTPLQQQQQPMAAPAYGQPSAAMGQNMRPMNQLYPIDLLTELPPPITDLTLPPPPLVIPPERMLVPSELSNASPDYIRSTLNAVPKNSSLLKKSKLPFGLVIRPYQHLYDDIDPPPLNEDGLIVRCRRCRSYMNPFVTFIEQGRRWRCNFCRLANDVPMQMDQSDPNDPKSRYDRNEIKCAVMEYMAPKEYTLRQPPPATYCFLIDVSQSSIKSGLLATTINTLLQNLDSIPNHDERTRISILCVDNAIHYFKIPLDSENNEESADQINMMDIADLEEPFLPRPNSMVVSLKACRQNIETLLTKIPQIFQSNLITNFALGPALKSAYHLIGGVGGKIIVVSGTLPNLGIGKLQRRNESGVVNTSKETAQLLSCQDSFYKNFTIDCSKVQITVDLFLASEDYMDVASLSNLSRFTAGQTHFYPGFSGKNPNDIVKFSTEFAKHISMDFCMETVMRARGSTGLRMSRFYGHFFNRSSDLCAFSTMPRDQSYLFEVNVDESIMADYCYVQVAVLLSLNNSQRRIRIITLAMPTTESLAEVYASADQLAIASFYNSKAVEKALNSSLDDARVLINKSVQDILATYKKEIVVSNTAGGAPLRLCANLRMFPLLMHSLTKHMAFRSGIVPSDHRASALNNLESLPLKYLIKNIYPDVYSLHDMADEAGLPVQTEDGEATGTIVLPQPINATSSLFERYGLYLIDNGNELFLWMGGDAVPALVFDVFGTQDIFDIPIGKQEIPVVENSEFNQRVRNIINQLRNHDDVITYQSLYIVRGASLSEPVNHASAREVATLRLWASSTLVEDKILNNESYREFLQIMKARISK

Variants of: B1
Conditions: with sec23_yeast SEC23, P15303

Variant | effect of a mutation on the interaction
K38A | disrupting interaction

Variants of: B2
Conditions: with sar1_yeast SAR1, P20606
Chain of sar1_yeast SAR1, P20606 (P20606 whole entry): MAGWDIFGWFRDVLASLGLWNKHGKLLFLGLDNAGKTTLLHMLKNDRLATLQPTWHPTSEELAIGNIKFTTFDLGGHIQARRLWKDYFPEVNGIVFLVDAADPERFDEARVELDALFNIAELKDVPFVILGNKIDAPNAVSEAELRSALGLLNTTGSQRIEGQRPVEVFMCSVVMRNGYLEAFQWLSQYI

Variant | effect of a mutation on the interaction
S742D | disrupting interaction
S742D;T747E | disrupting interaction
T747E | disrupting interaction

Variants of: B3
Conditions: with trs33_yeast TRS33, Q99394

Variant | effect of a mutation on the interaction
S742D;T747E | decreasing interaction

Variants of: B4
Conditions: with sec24_yeast SEC24, P40482

Variant | effect of a mutation on the interaction
K38A | disrupting interaction
